Article PMC5041007, “AglM and VNG1048G, Two Haloarchaeal UDP-Glucose Dehydrogenases, Show Different Salt-Related Behaviors” (Life, 2016)

Biological target: the molecule itself
Assay: SEC; Hi-Load Superdex 200 16/60 directly after Ni-NTA chromatography; 2 M NaCl, 5 mM MgCl2, 50 mM Tris-HCl, pH 9.2; 1 mL/min; masses from a calibration curve of marker proteins (12.4-200 kDa)

B1: Haloferax volcanii AglM, C-terminally polyhistidine-tagged (enzyme, UniProt D4GYH5 1-430, looked up)
chain: MELSIIGSGYVGTTIAACFAELGHDVVNVDIDEDIVASLNDGQAPIHEPGLAELVERYAGDRLRATTDYDEILDTDATFLALPTPSTDDGSIDLGAMKTAATSLGETLARKDDSHLVVTKSTVVPRTTVDVIGPRIEEASGKRVGDGLDIAMNPEFLREGTAVDDFLSPDKIVLGAQTDRAYETLAEIFAPLVERAGNPPVVKTGISEAEMIKYANNAFLASKISLANDLANICKVFGVDSAEVLESIGLDSRIGSAFLGAGLGWGGSCFPKDTAAIIAAARAQGYEPRLLQAAVDVNDGQPERMLDLLRERFDLDGKRVAVLGLAFKPGTDDIRKSRAILLIQALLDAGADVVGYDPVATENMRERFPDIDYADSAADALANADAALVATDWDEFAALDDEFDAMRERIVIDGRRIVTRREGLDYESLV
notes: AglM, UDP-glucose dehydrogenase of Haloferax volcanii, 430 residues; gene amplified from genomic DNA with primers at the start and end of the gene; Calculated mass of the His-tagged chain close to 47 kDa; also called His-tagged AglM; UDP-glucose dehydrogenase; source: Hfx. volcanii cells transformed with pHis-AglM, purified (Ni-NTA, then size-exclusion chromatography); not shown: polyhistidine, …
stoichiometry N: 12
